94 variants from the supplement of paper PMC10567573 can be followed below.

The labels stand for the following.
B1: C20orf112 (parent)
chain: YANGGLNYSYRGYGALSSNLQPPA
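Note: lentivirally expressed fusions sorted by FACS into six bins by GFP to DsRed ratio, PSI derived from sequencing read proportions per bin multiplied by bin number.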

The variants in the data set derive from B1. Kind of data set: protein stability index of a GFP-peptide fusion (GPS, HEK-293T) (PSI 1-6); higher = more stable. The conditions noted are these: c terminus: a fixed tail appended.
In the case of YANWGLNYSYRGYGALSSNLQPPA [G4W], the protein stability index was 1.99.

Regarding YANSGLNYSYRGYGALSSNLQPPA [G4S], the protein stability index was 1.66.

Turning to YANHGLNYSYRGYGALSSNLQPPA [G4H], the protein stability index amounted to 1.6.

In the case of YANKGLNYSYRGYGALSSNLQPPA [G4K], the protein stability index turned out to be 2.4.

In the case of YANDGLNYSYRGYGALSSNLQPPA [G4D], the protein stability index came to 2.05.

Regarding YANYGLNYSYRGYGALSSNLQPPA [G4Y], the protein stability index amounted to 2.38.

In the case of YANFGLNYSYRGYGALSSNLQPPA [G4F], the protein stability index was found to be 1.42.

Take YANMGLNYSYRGYGALSSNLQPPA [G4M]: the protein stability index was determined as 1.48.

As for YANNGLNYSYRGYGALSSNLQPPA [G4N], the protein stability index amounted to 2.02.

On to YANVGLNYSYRGYGALSSNLQPPA [G4V], for which the protein stability index was found to be 2.32.

YANTGLNYSYRGYGALSSNLQPPA [G4T]: the protein stability index worked out at 1.98.

For YANPGLNYSYRGYGALSSNLQPPA [G4P], the protein stability index was 2.18.

Turning to YANIGLNYSYRGYGALSSNLQPPA [G4I], the protein stability index was 1.93.

In the case of YANLGLNYSYRGYGALSSNLQPPA [G4L], the protein stability index turned out to be 2.01.

For YANQGLNYSYRGYGALSSNLQPPA [G4Q], the protein stability index was 2.06.

In the case of YANCGLNYSYRGYGALSSNLQPPA [G4C], the protein stability index worked out at 1.91.

As to YANAGLNYSYRGYGALSSNLQPPA [G4A], the protein stability index amounted to 2.81.

For YANRGLNYSYRGYGALSSNLQPPA [G4R], the protein stability index amounted to 1.38.

Consider YANEGLNYSYRGYGALSSNLQPPA [G4E], for which the protein stability index is 2.01.

As to LANGGLNYSYRGYGALSSNLQPPA [Y1L], the protein stability index came out at 2.67.

With CANGGLNYSYRGYGALSSNLQPPA [Y1C], the protein stability index is 1.96.

For AANGGLNYSYRGYGALSSNLQPPA [Y1A], the protein stability index is 3.08.

Consider FANGGLNYSYRGYGALSSNLQPPA [Y1F], for which the protein stability index was determined as 1.86.

TANGGLNYSYRGYGALSSNLQPPA [Y1T]: the protein stability index stood at 2.83.

Consider SANGGLNYSYRGYGALSSNLQPPA [Y1S], for which the protein stability index stood at 3.12.

For EANGGLNYSYRGYGALSSNLQPPA [Y1E], the protein stability index came to 3.15.

QANGGLNYSYRGYGALSSNLQPPA [Y1Q]: the protein stability index came to 3.32.

As for PANGGLNYSYRGYGALSSNLQPPA [Y1P], the protein stability index turned out to be 2.43.

For the variant VANGGLNYSYRGYGALSSNLQPPA [Y1V], the protein stability index stood at 2.2.

For IANGGLNYSYRGYGALSSNLQPPA [Y1I], the protein stability index worked out at 2.45.

As to MANGGLNYSYRGYGALSSNLQPPA [Y1M], the protein stability index came out at 2.87.

For GANGGLNYSYRGYGALSSNLQPPA [Y1G], the protein stability index stood at 3.16.

Take DANGGLNYSYRGYGALSSNLQPPA [Y1D]: the protein stability index turned out to be 2.9.

Regarding WANGGLNYSYRGYGALSSNLQPPA [Y1W], the protein stability index was found to be 1.85.

In the case of KANGGLNYSYRGYGALSSNLQPPA [Y1K], the protein stability index was determined as 2.96.

As to HANGGLNYSYRGYGALSSNLQPPA [Y1H], the protein stability index turned out to be 2.64.

In the case of RANGGLNYSYRGYGALSSNLQPPA [Y1R], the protein stability index stood at 2.97.

Take NANGGLNYSYRGYGALSSNLQPPA [Y1N]: the protein stability index turned out to be 3.08.

As to YANGGDNYSYRGYGALSSNLQPPA [L6D], the protein stability index turned out to be 1.9.

Consider YANGGANYSYRGYGALSSNLQPPA [L6A], for which the protein stability index worked out at 2.03.

As for YANGGSNYSYRGYGALSSNLQPPA [L6S], the protein stability index came to 1.65.

Consider YANGGKNYSYRGYGALSSNLQPPA [L6K], for which the protein stability index came to 1.57.

For the variant YANGGYNYSYRGYGALSSNLQPPA [L6Y], the protein stability index is 2.47.

As to YANGGHNYSYRGYGALSSNLQPPA [L6H], the protein stability index was found to be 1.97.

On to YANGGCNYSYRGYGALSSNLQPPA [L6C], for which the protein stability index is 2.24.

In the case of YANGGENYSYRGYGALSSNLQPPA [L6E], the protein stability index is 1.97.

For YANGGWNYSYRGYGALSSNLQPPA [L6W], the protein stability index worked out at 2.27.

Turning to YANGGGNYSYRGYGALSSNLQPPA [L6G], the protein stability index came to 1.73.

As for YANGGFNYSYRGYGALSSNLQPPA [L6F], the protein stability index turned out to be 2.08.

On to YANGGTNYSYRGYGALSSNLQPPA [L6T], for which the protein stability index came to 1.96.

As for YANGGRNYSYRGYGALSSNLQPPA [L6R], the protein stability index worked out at 2.1.

For YANGGQNYSYRGYGALSSNLQPPA [L6Q], the protein stability index is 1.55.

As to YANGGINYSYRGYGALSSNLQPPA [L6I], the protein stability index was determined as 2.33.

Take YANGGVNYSYRGYGALSSNLQPPA [L6V]: the protein stability index was 1.85.

YANGGNNYSYRGYGALSSNLQPPA [L6N]: the protein stability index came to 1.47.

For YANGGPNYSYRGYGALSSNLQPPA [L6P], the protein stability index is 2.5.

On to YANGGMNYSYRGYGALSSNLQPPA [L6M], for which the protein stability index is 2.3.

YANGGLNLSYRGYGALSSNLQPPA [Y8L]: the protein stability index was 1.94.

With YANGGLNFSYRGYGALSSNLQPPA [Y8F], the protein stability index is 1.73.

On to YANGGLNHSYRGYGALSSNLQPPA [Y8H], for which the protein stability index was found to be 1.85.

Turning to YANGGLNCSYRGYGALSSNLQPPA [Y8C], the protein stability index turned out to be 2.22.

Take YANGGLNDSYRGYGALSSNLQPPA [Y8D]: the protein stability index stood at 1.95.

As for YANGGLNQSYRGYGALSSNLQPPA [Y8Q], the protein stability index worked out at 1.64.

Regarding YANGGLNRSYRGYGALSSNLQPPA [Y8R], the protein stability index came out at 2.04.

On to YANGGLNESYRGYGALSSNLQPPA [Y8E], for which the protein stability index came to 2.13.

Consider YANGGLNMSYRGYGALSSNLQPPA [Y8M], for which the protein stability index is 1.95.

In the case of YANGGLNGSYRGYGALSSNLQPPA [Y8G], the protein stability index was 2.19.

Take YANGGLNSSYRGYGALSSNLQPPA [Y8S]: the protein stability index stood at 1.89.

Take YANGGLNWSYRGYGALSSNLQPPA [Y8W]: the protein stability index was 2.23.

Turning to YANGGLNVSYRGYGALSSNLQPPA [Y8V], the protein stability index is 2.19.

YANGGLNNSYRGYGALSSNLQPPA [Y8N]: the protein stability index worked out at 2.22.

Turning to YANGGLNASYRGYGALSSNLQPPA [Y8A], the protein stability index was found to be 1.76.

In the case of YANGGLNISYRGYGALSSNLQPPA [Y8I], the protein stability index worked out at 2.15.

YANGGLNPSYRGYGALSSNLQPPA [Y8P]: the protein stability index is 1.37.

As for YANGGLNKSYRGYGALSSNLQPPA [Y8K], the protein stability index is 1.83.

With YANGGLNTSYRGYGALSSNLQPPA [Y8T], the protein stability index was determined as 1.84.

With YATGGLNYSYRGYGALSSNLQPPA [N3T], the protein stability index worked out at 1.65.

YAEGGLNYSYRGYGALSSNLQPPA [N3E]: the protein stability index was found to be 1.6.

As for YAGGGLNYSYRGYGALSSNLQPPA [N3G], the protein stability index turned out to be 1.98.

For the variant YAAGGLNYSYRGYGALSSNLQPPA [N3A], the protein stability index stood at 1.64.

Take YAKGGLNYSYRGYGALSSNLQPPA [N3K]: the protein stability index was 1.7.

For the variant YARGGLNYSYRGYGALSSNLQPPA [N3R], the protein stability index came out at 2.25.

Regarding YACGGLNYSYRGYGALSSNLQPPA [N3C], the protein stability index is 1.69.

With YAMGGLNYSYRGYGALSSNLQPPA [N3M], the protein stability index was determined as 1.5.

Consider YAFGGLNYSYRGYGALSSNLQPPA [N3F], for which the protein stability index was found to be 2.04.

Consider YAYGGLNYSYRGYGALSSNLQPPA [N3Y], for which the protein stability index was found to be 1.8.

Turning to YASGGLNYSYRGYGALSSNLQPPA [N3S], the protein stability index was 1.99.

For the variant YAWGGLNYSYRGYGALSSNLQPPA [N3W], the protein stability index turned out to be 1.82.

Regarding YAQGGLNYSYRGYGALSSNLQPPA [N3Q], the protein stability index was 1.65.

Take YAPGGLNYSYRGYGALSSNLQPPA [N3P]: the protein stability index was found to be 2.35.

As for YALGGLNYSYRGYGALSSNLQPPA [N3L], the protein stability index worked out at 2.25.

In the case of YAHGGLNYSYRGYGALSSNLQPPA [N3H], the protein stability index was 1.55.

Regarding YAVGGLNYSYRGYGALSSNLQPPA [N3V], the protein stability index was determined as 2.08.

Consider YAIGGLNYSYRGYGALSSNLQPPA [N3I], for which the protein stability index came out at 2.11.
